Test results published in the DeepSol protein solubility set.

assay: soluble on expression in E. coli; label from the status in PepcDB or PDB records

Sequence | soluble on expression in E. coli
ATITIETCEDPGDWTAAIGDDTFTFWRGLKDAGLLDEVIQEFHQELVETMRGLQQRVQDPPLQLRDAVLLNNIVQNFGMLDLVKKVLASHKCQMDRSREQYARDLAAL | soluble
ATLKDITRRLKSIKNIQKITKSMKMVAAAKYARAERELKPARVYGVGSLALYEKADIKTPEDKKKHLIIGVSSDRGLCGAIHSSVAKQMKSEAANLAAAGKEVKIIGVGDKIRSILHRTHSDQFLVTFKEVGRRPPTFGDASVIALELLNSGYEFDEGSIIFNRFRSVISYKTEEKPIFSLDTISSAESMSIYDDIDADVLRNYQEYSLANIIYYSLKESTTSEQSARMTAMDNASKNASEMIDKLTLTFNRTRQAVITKELIEIISGAAAL | soluble
AVHITLDPDTANPWLILSEDRRQVRLGDTQQSIPGNEERFDSYPMVLGAQHFHSGKHYWEVDVTGKEAWDLGVCRDSVRRKGHFLLSSKSGFWTIWLWNKQKYEAGTYPQTPLHLQVPPCQVGIFLDYEAGMVSFYNITDHGSLIYSFSECAFTGPLRPFFSPGFNDGGKNTAPLTLCPLNIGSQG | not soluble
AVKEMVYRTRLANGLTVALLPKKEFKEVYGSVTVQFGSVDTFVTEVDGDVKQYPGGIAHFLEHKLFEREDSSDLMSAFTSLGADSNAFTSFTKTNYLFSATDYFLENLDLLDELVTSAHFTEASILTEQDIIQQEREMYQDDPDSCLFFSTLANLYPGTPLATDIVGSEESISQINLTNLQENFTKFYKPVNMSLFLVGNFDVERVQDYFESKELKDSDFQEVAR | not soluble
AVKILEIEDLFSSLKHIQHTLVDSQSQEDISLLLQLVQNKDFQNAFKIHNAITVHMNKAS | soluble
AVKLQESGPGILKPSQTLSLTCSFSGFSLTTYGMGVGWIRQSSGKGLEWLAHIWWDDDKYYNPSLKSRLTISKDTSRNQVFLKITSVATADTATYYCARRAPFYGNHAMDYWGQGTTVTVSSAKTTPPSVYPLAPGSAAQTNSMVTLGCLVKGYFPEPVTVTWNSGSLSSGVHTFPAVLQSDLYTLSSSVTVPSSPRPSETVTCNVAHPASSTKVDKKI | soluble
AVLDLDVRTCLPCGPGGKGRCFGPSICCGDELGCFVGTAEALRCQEENYLPSPCQSGQKPCGSGGRCAAAGICCSPDGCEEDPACDPEAAFS | soluble
AVPFVEDWDLVQTLGEGAYGEVQLAVNRVTEEAVAVKIVDMKRAVDCPENIKKEICINKMLNHENVVKFYGHRREGNIQYLFLEYCSGGELFDRIEPDIGMPEPDAQRFFHQLMAGVVYLHGIGITHRDIKPENLLLDERDNLKISDFGLATVFRYNNRERLLNKMCGTLPYVAPELLKRREFHAEPVDVWSCGIVLTAMLAGELPWDQPSDSCQEYSDWKEKKTYLNPWKKIDSAPLALLHKILVENPSARITIPDIKKDRWYNKPLKKG | soluble
AVSDQRLSEATLRELEDERQRAGLPEKPEIPEGWTIDRKPGVTHFTMRKSHGDEEIILQLTGEDRSNEEITRTLDVLVVNGGKALVFGMSVEDGEFVINNVCFRHDGKLALDTSAEAQFQKSQLYMGPDLADLEDHLVDSFTSYLSARGVNDTLANFIDQFSLWSEQADYEEWLSSINKFVS | soluble
AVVITDRQNRIIKVNNEFTRLSGYTFEDVKGKQPSIFASGLHKVEFYMQMWKALQDNGVWEGEVINKRKDGESITEILRIQSIRDEDNVIQFYVASFVDIS | not soluble
AYVITEPCIGTKDASCVEVCPVDCIHEGEDQYYIDPDVCIDCGACEAVCPVSAIYHEDFVPEEWKSYIQKNRDFFKK | soluble
CFSCLNQKSNLYCLKPTICSDQDNYCVTVSASAGIGNLVTFGHSLSKTCSPACPIPEGVNVGVASMGISCCQSFLCNFS | soluble
CGIVGAIAQRDVAEILLEGLRRLEYRGYDSAGLAVVDAEGHMTRLRRLGKVQMLAQAAEEHPLHGGTGIAHTRWATHGEPSEVNAHPHVSEHIVVVHNGIIENHEPLREELKARGYTFVSETDTEVIAHLVNWELKQGGTLREAVLRAIPQLRGAYGTVIMDSRHPDTLLAARSGSPLVIGLGMGENFIASDQLALLPVTRRFIFLEEGDIAEITRRSVNIFDKTGAEVKRQDIESNLQYDAGDKGIYRHYMQKEIYEQPNAIKNTLTGRISHGQVDLSELGPNADELLSKVEHIQILACGTSYNSGMVSRYWFESLAGIPCDVEIASEFRYRKSAVRRNSLMITLSQSGETADTLAGLRLSKELGYLGSLAICNVPGSSLVRESDLALMTNAGTEIGVASTKAFTTQLTVLLMLVAKLSKLKGLDASIEHDIVHGLQALPSRIEQMLSQDKRIEALAEDFSDKHHALFLGRGDQYPIALEGALKLKEISYIHAEAYAAGELKHGPLALIDADMPVIVVAPNNELLEKLKSNIEEVRARGGQLYVFADQDAGFVSSDNMHIIEMPHVEEVIAPIFYTVPLQLLAYHVALIKGTDVDQPRNLAKSVTVE | soluble
CTEPLGLKDNTIPNKQITASSYYKTWGLSAFSWFPYYARLDNQGKFNAWTAQTNSASEWLQIDLGSQKRVTGIITQGARDFGHIQYVAAYRVAYGDDGVTWTEYKDPGASESKIFPGNMDNNSHKKNIFETPFQARFVRIQPVAWHNRITLRVELLGC | soluble
CTRAVYLGPDRMVVTGRTMDWKEDIMSNIYVFPRGMQRAGHNKEKTVNWTSKYGSVIATGYDIGTCDGMNEKGLVASLLFLPESVYSLPGDTRPAMGISIWTQYVLDNFATVREAVDEMKKETFRIDAPRMPNGGPESTLHMAITDETGNTAVIEYLDGKLSIHEGKEYQVMTNSPRYELQLAVNDYWKEVGGLQMLPGTNRSSDRFVRASFYIHAIPQTADAKIAVPSVLSVMRNVSVPFGINTPEKPHISSTRWRSVSDQKNKVYYFESTLTPNLFWLDLKKIDFSPKAGVKKLSLTKGEIY | not soluble
DAPAVGKDLTQAAENIPPAFHNAPRQGELPALNYVNQPPMVPHSVANYQVTKNVNQCLNCHSPENSRLSGATRISPTHFMDRDGKVGSSSSPRRYFCLQCHVSQANVDPIVPNDFKPMKGYGN | soluble
DAVPEKSLNAALLCLQAMGALDDNGDVTEHGKKVYPLPIDALFADLVTRIPTKAEKEAMIDLAAALSVPAQLYQLQRGEAAEALEREEPLGCD | not soluble
DDFLTLDACKIALKEMKKGFDLLCFDAFVHRVKTKQFYRFKQDEFFNQKEFLEFLSKQRHFCWSVWAKCFRKDIILKSFEKIKIDERLSYGEDVLFCYVYFMFCEKIAVFKTCIYHYEFNPNGRYENKNKEILWQNYQDKKKSNELVKKLCLNFKNNDFHKKLFEVLEKEEFDLQRRVDEARN | not soluble
DENASAAEQVNKTIIGIDPGSGIMSLTDKAMKDYDLNDWTLISASSAAMTATLKKSYDRKKPIIITGWTPHWMFSRYKLKYLDDPKQSYGSAEEIHTITRKGFSKEQPNAAKLLSQFKWTQDEMGEIMIKVEEGEKPAKVAAEYVNKHKDQIAEWTKGVQKVKGDKINLAYVAWDSEIASTNVIGKVLEDLGYEVTLTQVEAGPMWTAIATGSADASLSAWLPNTHKAYAAKYKGKYDDIGTSMTGVKMGLVVPQYMKNVNSIEDLKK | soluble
DGISSLLKPLSKIGLDTKTFALLISMTLRFVPILSDEFSTIVDAQRSRGLSLKTGSIVKRTKTLIPMIIPLISVAFKKALTLADTMEIRGFIDAKSRTSFHQLKFQKID | not soluble
DGQLTNLPGGIDEYLKRREALAAQNQSGVVNLGGNNEAASAPVPEKKLSSQEQREITKQMNALERKMGKLDPKIAKINEEMAAAAQRVDTAELTRLDAELNELTAQREGLEMEWMDLGERLES | soluble
DHYACVSSGGQCLYSACPIFTKIQGTCYRGKAKCCK | soluble
DIHPYSVSYSWDKQVEDEDHMEVFPAGSSFPSTKLITLNRTGDFSMAASYTDITQLPPNTPEQIANWEITGVQLPEGQDSVPVKLKLRCDPSGLHTIEEAYTIEDIEVEEPIPLPEDAPEDAEQEFKKVTKTVKKDDLTIVAHTFGLDAKKLNELIEKENEMLAQDKLVAETEDRKNTLE | not soluble
